Here are results for 30 molecules from paper PMC10786891, “Massively parallel profiling of RNA-targeting CRISPR-Cas13d”.

B1: target 1 insU 3' of 20,insA 3' of 4 (mixed)
RNA 1: CACCCGUGCAAAAAUGCAGGGGUCUAAAACUGAGCGGAUAACCUCUCUAUGG
RNA 2: GGGAAUGGAUCCACAUCUACGAAUUCGUACCAUUAGAGAGGUUAUCCGCAUCACCGAGAUCGGAAGAGCACACGU
B2: target 1 C2A,C6G (mixed)
RNA 1: B1 RNA 1
RNA 2: GGGAAUGGAUCCACAUCUACGAAUUCGUACCAUAGAGAGGUUAUCGGCUAACCGAGAUCGGAAGAGCACACGU
B3: target 1 insC 3' of 18,insC 3' of 1 (mixed)
RNA 1: B1 RNA 1
RNA 2: B1 RNA 2 with U34A, A35C, A50U, U51C, C52A, A53C
B4: target 3 U2G,U8C (mixed)
RNA 1: CACCCGUGCAAAAUUGCAGGGGUCUAAAACGACCUGAAUAUUUCAGAUCAAA
RNA 2: GGGAAUGGAUCCACAUCUACGAAUUCGUUUUUGAUCUGAAAUACUCAGGGCUGCAGAUCGGAAGAGCACACGU
B5: target 3 insU 3' of 4,insA 3' of 4 (mixed)
RNA 1: B4 RNA 1
RNA 2: GGGAAUGGAUCCACAUCUACGAAUUCGUUUUUGAUCUGAAAUAUUCAGUAGUCUGCAGAUCGGAAGAGCACACGU
B6: target 3 del2,del5 (mixed)
RNA 1: B4 RNA 1
RNA 2: GGGAAUGGAUCCACAUCUACGAAUUCGUUUUUGAUCUGAAAUAUUCGGCUGCAGAUCGGAAGAGCACACGU
B7: target 3 insU 3' of 22,insA 3' of 3 (mixed)
RNA 1: B4 RNA 1
RNA 2: GGGAAUGGAUCCACAUCUACGAAUUCGUUUUUUGAUCUGAAAUAUUCAGGAUCUGCAGAUCGGAAGAGCACACGU
B8: target 3 G4U,A18G (mixed)
RNA 1: B4 RNA 1
RNA 2: B4 RNA 2 with A34G, C44U, G48U, G50U
B9: target 3 insA 3' of 21,insC 3' of 4 (mixed)
RNA 1: B4 RNA 1
RNA 2: B7 RNA 2 with U32A, G50C, A51G
B10: target 3 C1G,U7A (mixed)
RNA 1: B4 RNA 1
RNA 2: B4 RNA 2 with C44U, U45A, G50U, C51G
B11: target 3 U7G,U8A (mixed)
RNA 1: B4 RNA 1
RNA 2: B4 RNA 2 with C44A, U45G, G50U
B12: target 3 A9G (mixed)
RNA 1: B4 RNA 1
RNA 2: B4 RNA 2 with A43G, C44U, G50U
B13: target 3 A5U,C6G (mixed)
RNA 1: B4 RNA 1
RNA 2: B4 RNA 2 with C44U, C46G, A47U, G50U
B14: target 3 insA 3' of 21,insU 3' of 3 (mixed)
RNA 1: B4 RNA 1
RNA 2: B7 RNA 2 with U32A, A51U
B15: target 3 C6U,A13G (mixed)
RNA 1: B4 RNA 1
RNA 2: B4 RNA 2 with A39G, C44U, C46U, G50U
B16: target 3 insA 3' of 3,insG 3' of 1 (mixed)
RNA 1: B4 RNA 1
RNA 2: B5 RNA 2 with U49G, G51U, U52C, C53G
B17: target 3 insC 3' of 9,insC 3' of 4 (mixed)
RNA 1: B4 RNA 1
RNA 2: B5 RNA 2 with U44C, C46U, A47C, G48A, U49G, A50C
B18: target 3 G19U,U20G (mixed)
RNA 1: B4 RNA 1
RNA 2: B4 RNA 2 with U32G, G33U, C44U, G50U
B19: target 3 U7A (mixed)
RNA 1: B4 RNA 1
RNA 2: B4 RNA 2 with C44U, U45A, G50U
B20: target 3 G4C (mixed)
RNA 1: B4 RNA 1
RNA 2: B4 RNA 2 with C44U, G48C, G50U
B21: target 3 C1U,U7A (mixed)
RNA 1: B4 RNA 1
RNA 2: B4 RNA 2 with C44U, U45A, G50U, C51U
B22: target 3 U2A,G4A (mixed)
RNA 1: B4 RNA 1
RNA 2: B4 RNA 2 with C44U, G48A, G50A
B23: target 3 insG 3' of 5,insA 3' of 3 (mixed)
RNA 1: B4 RNA 1
RNA 2: B5 RNA 2 with U49G, A50G, G51A
B24: target 3 C6A,U7C (mixed)
RNA 1: B4 RNA 1
RNA 2: B4 RNA 2 with C44U, U45C, C46A, G50U
B25: target 3 C1G,U7G (mixed)
RNA 1: B4 RNA 1
RNA 2: B4 RNA 2 with C44U, U45G, G50U, C51G
B26: target 3 insU 3' of 22,insU 3' of 5 (mixed)
RNA 1: B4 RNA 1
RNA 2: B7 RNA 2 with G49U, A51G
B27: target 3 insC 3' of 5,insC 3' of 2 (mixed)
RNA 1: B4 RNA 1
RNA 2: B5 RNA 2 with G48C, U49G, A50G, G51U, U52C
B28: target 3 insA 3' of 8,insU 3' of 3 (mixed)
RNA 1: B4 RNA 1
RNA 2: B5 RNA 2 with U45A, C46U, A47C, G48A, U49G, A50G, G51U
B29: target 3 G3C,C6G (mixed)
RNA 1: B4 RNA 1
RNA 2: B4 RNA 2 with C44U, C46G, G49C, G50U
B30: target 3 insU 3' of 6,insU 3' of 3 (mixed)
RNA 1: B4 RNA 1
RNA 2: B5 RNA 2 with A47U, G48A, U49G, A50G, G51U

Where a chain is given by its changes, count along the chain named. Numbers in names are those of the source.

The target in the data set is T1, EsCas13d, nuclease-dead (Eubacterium siraeum, UniProt B0MS50, R295A;H300A;R849A;H854A).
T1 sequence: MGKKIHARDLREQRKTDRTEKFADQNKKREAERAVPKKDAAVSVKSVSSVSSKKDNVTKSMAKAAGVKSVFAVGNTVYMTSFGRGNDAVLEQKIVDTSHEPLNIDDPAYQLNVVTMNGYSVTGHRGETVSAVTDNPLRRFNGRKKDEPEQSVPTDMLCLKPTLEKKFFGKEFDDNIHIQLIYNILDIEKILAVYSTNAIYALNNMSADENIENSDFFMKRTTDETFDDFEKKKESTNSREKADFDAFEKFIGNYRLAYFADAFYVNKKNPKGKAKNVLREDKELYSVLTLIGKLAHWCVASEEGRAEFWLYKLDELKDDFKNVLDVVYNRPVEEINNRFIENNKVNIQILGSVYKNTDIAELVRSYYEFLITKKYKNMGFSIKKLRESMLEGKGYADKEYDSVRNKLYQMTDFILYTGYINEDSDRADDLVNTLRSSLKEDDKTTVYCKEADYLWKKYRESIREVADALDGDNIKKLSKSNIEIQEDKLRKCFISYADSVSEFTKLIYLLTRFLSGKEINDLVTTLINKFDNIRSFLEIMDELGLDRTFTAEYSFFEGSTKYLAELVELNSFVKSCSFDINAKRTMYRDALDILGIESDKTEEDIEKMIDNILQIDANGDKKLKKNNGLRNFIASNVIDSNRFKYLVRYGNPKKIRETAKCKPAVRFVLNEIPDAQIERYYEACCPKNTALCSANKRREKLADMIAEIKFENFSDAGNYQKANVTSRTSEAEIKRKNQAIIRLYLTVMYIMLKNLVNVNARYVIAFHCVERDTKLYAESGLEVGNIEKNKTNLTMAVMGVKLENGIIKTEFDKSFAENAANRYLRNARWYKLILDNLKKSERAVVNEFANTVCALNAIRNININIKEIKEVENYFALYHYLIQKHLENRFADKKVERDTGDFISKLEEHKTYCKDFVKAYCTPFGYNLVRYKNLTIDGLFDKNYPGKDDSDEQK
As to the kind of experiment: crRNA (strand 1, pre-loaded); Mg2+; 40 mM Tris-HCl pH 7.5, 150 mM NaCl, 6 mM MgCl2, 1 mM DTT, 0.1% Tween-20, 0.2 mg/ml BSA; 25 C; 10 min per concentration, then washed. Particulars: tags: His6-TwinStrep-SUMO cleaved; N-terminal SNAP kept (SNAP-Surface 488); label: 3' end held by stalled T7 RNA polymerase.
For the molecule B1, the affinity, expressed as Kd, was 8.6 ± 0.7 nM. Consider B2, for which the Kd was determined as 6.03 ± 0.34 nM.

Regarding B3, the Kd worked out at 29 ± 5 nM.

B4: binding was put at a Kd of 20.6 ± 2.2 nM. This Kd and that of the molecule before are within 1.5-fold of each other. As for B5, binding was characterised by a dissociation constant (Kd) of 22.9 ± 3.25 nM. For B6 the value was 5.35 ± 0.45 nM; for B7, 22.1 ± 2.4 nM. To B8 belongs 9.75 ± 1.45 nM; to B9, 50.5 ± 15.5 nM; to B10, 15.3 ± 4.1 nM.

Turning to B11, the Kd came out at 67 ± 12 nM. To B12 belongs 29.1 ± 2.85 nM; to B13, 39 ± 4.5 nM; to B14, 46.3 ± 13.7 nM.

As to B15, binding was put at a Kd of 34 ± 6 nM. For B16 the value was 52 ± 11 nM; for B17, 87.5 ± 28 nM; for B18, 33.5 ± 7 nM. For B19 the value was 27.8 ± 3.6 nM; for B20, 10.7 ± 1 nM; for B21, 36.5 ± 15.5 nM. As for B22, binding was characterised by a dissociation constant (Kd) of 3.11 ± 0.33 nM. For B23 the value was 17.2 ± 2.55 nM. The molecule B24 yielded a Kd of 69 ± 9.5 nM.

B25 displayed a Kd of 28.9 ± 5.65 nM. Compared with the last molecule, the Kd is about 2.4-fold lower. With B26, the Kd was found to be 6.45 ± 0.55 nM.

Turning to B27, the Kd amounted to 9.9 ± 1.35 nM. Against the preceding molecule, the Kd is about 1.5-fold higher. For B28 the value was 70 ± 20 nM; for B29, 34.2 ± 4.7 nM; for B30, 12.9 ± 2 nM.
